How the values were obtained:
hPD-1-his抗原 = hPD-1-his抗原 (human, UniProt Q15116 25-167, limits assumed); assay: ELISA, hPD-1-his coated 0.25 μg/ml
hPD-1-hIgGFc抗原 [1] = target: T1, hPD-1-hIgGFc抗原 (human, UniProt Q15116 25-167, limits assumed); assay: competition ELISA, hPD-1-hIgGFc coated, competitor PDL2-his tag 0.6 μg/ml
hPD-1-hIgGFc抗原 [2] = target: T1, hPD-1-hIgGFc抗原; assay: competition ELISA, hPD-1-hIgGFc coated, competitor PDL1-mIgG2aFc 0.6 μg/ml

T1 sequence (Q15116 25-167 limits assumed): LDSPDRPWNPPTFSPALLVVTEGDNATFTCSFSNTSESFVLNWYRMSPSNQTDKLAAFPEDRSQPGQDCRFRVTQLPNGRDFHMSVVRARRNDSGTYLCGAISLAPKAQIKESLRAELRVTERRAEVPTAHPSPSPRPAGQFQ
Chain of hPD-1-his抗原 (Q15116 25-167 limits assumed): as above

B1: 人源化抗体H8 (抗PD-1的IgG类抗体) (antibody, V domains shown)
VH: EVQLVQSGGGLVQPGGSLKLSCAASGFTFSSYGMSWVRQAPGKGLDWVATISGGGRDTYYPDSVKGRFTISRDNSKNNLYLQMNSLRAEDTALYYCARQKGEAWFAYWGQGTLVTVSA
VL: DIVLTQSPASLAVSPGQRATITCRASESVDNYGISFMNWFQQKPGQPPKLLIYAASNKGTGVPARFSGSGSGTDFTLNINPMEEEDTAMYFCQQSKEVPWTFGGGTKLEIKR
notes: HX009-5 is H8 with linker-SIRPA added to the C-terminus of the heavy chain, and both share the light chain; also called HX008
B1 showed an EC50 (hPD-1-his抗原) of 0.05 nM, an IC50 (hPD-1-hIgGFc抗原 [1]) of 2.7 nM and an IC50 (hPD-1-hIgGFc抗原 [2]) of 1 nM.

Reference: patent publication CN109897111A (HANGZHOU HANSI BIOLOGICAL MEDICINE CO LTD, dated 2019)
